We go through four molecules from US20260125469A1 (Hoffmann-La Roche, published 2026).

Assay [1] deals with T1, Human CD3ε stalk-Fc(knob)-Avi/CD3δ stalk-Fc(hole) (human).
T1 construct: Heterodimer of CD3 delta and CD3 epsilon ectodomains fused to human Fc with knob-into-hole; also called human CD3ε/δ; CD3 antigen
Description: SPR, TCB captured by anti-PG antibody, antigen as analyte, 25°C. An excerpt:
(§1) For affinity measurements, TCB molecules were captured on a C1 sensorchip (GE Healthcare) surface with immobilized anti-Fc(P329G) IgG (an antibody that specifically binds human IgG₁ Fc(P329G); “anti-PG antibody”—see WO 2017/072210, incorporated herein by reference). The experimental setup is schematically depicted in FIG. 3. Capture IgG was coupled to the sensorchip surface by direct immobilization of around 400 resonance units (RU) using the standard amine coupling kit (GE Healthcare Life Sciences).
(§2) To analyze the interaction to CD3, TCB molecules were captured for 80 s at 25 nM with a flow rate of 10 μl/min. […] The dissociation was monitored for 800 s.
(§3) Kinetic constants were derived using the Biacore T200 Evaluation Software (GE Healthcare Life Sciences), to fit rate equations for 1:1 Langmuir binding by numerical integration. The half-life (t_{1/2}) of the interaction was calculated using the formula t_{1/2}=ln2/koff.

Assay [2] concerns the target T1, Human CD3ε stalk-Fc(knob)-Avi/CD3δ …. Description: SPR on immobilized human CD3ε/δ after stress, relative to sample kept at -80°C pH 6. The method, then:
In order to assess the effect of the deamidation site removal and its effect on the stability of the antibodies, the optimized anti-CD3 antibodies (in TCB format) were incubated for 14 days at 37° C., pH 7.4 and at 40° C., pH 6 and further analyzed by SPR for their binding capability to human CD3ε/δ. Samples stored at −80° C. pH 6 were used as reference. The reference samples and the samples stressed at 40° C. were in 20 mM His, 140 mM NaCl, pH 6.0, and the samples stressed at 37° C. in PBS, pH 7.4, all at a concentration of 1.0 mg/ml. After the stress period (14 days) samples in PBS were dialyzed back to 20 mM His, 140 mM NaCl, pH 6.0 for further analysis.
All SPR experiments were performed on a Biacore T200 instrument (GE Healthcare) at 25° C. with HBS-P+ (10 mM HEPES, 150 mM NaCl pH 7.4, 0.05% Surfactant P20) as running and dilution buffer. Biotinylated human CD3ε/δ (see Example 3, SEQ ID NOs 41 and 42) as well as biotinylated anti-huIgG (Capture Select, Thermo Scientific, #7103262100) were immobilized on a Series S Sensor Chip SA (GE Healthcare, #29104992), resulting in surface densities of at least 1000 resonance units (RU). Anti-CD3 antibodies with a concentration of 2 μg/ml were injected for 30 s at a flow rate of 5 μl/min, and dissociation was monitored for 120 s. The surface was regenerated by injecting 10 mM glycine pH 1.5 for 60 s. Bulk refractive index differences were corrected by subtracting blank injections and by subtracting the response obtained from a blank control flow cell. For evaluation, the binding response 5 seconds after injection end was taken. To normalize the binding signal, the CD3 binding was divided by the anti-huIgG response (the signal (RU) obtained upon capture of the CD3 antibody on the immobilized anti-huIgG antibody). The relative binding activity was calculated by referencing each temperature stressed sample to the corresponding, non-stressed sample.

The target in assay [3] is T2, Cynomolgus CD3ε stalk-Fc(knob)-Avi/CD3δ stalk-Fc(hole) (cynomolgus).
T2 construct: also called cynomolgus CD3ε/δ
Description: SPR, TCB captured by anti-PG antibody, antigen as analyte, 25°C.
Description: as §1, §2, §3

B1: TYRP1-TCB with the parental CD3 binder CD3orig (bispecific antibody, human IgG1, kappa, L234A L235A)
heavy 1: not shown
heavy 2: QVQLVQSGAEVKKPGASVKVSCKASGFNIKDYFLHWVRQAPGQGLEWMGWINPDNGNTVYAQKFQGRVTMTADTSTSTVYMELSSLRSEDTAVYYCTRRDYTYEKAALDYWGQGTLVTVSSASTKGPSVFPLAPSSKSTSGGTAALGCLVEDYFPEPVTVSWNSGALTSGVHTFPAVLQSSGLYSLSSVVTVPSSSLGTQTYICNVNHKPSNTKVDEKVEPKSCDKTHTCPPCPAPEAAGGPSVFLFPPKPKDTLMISRTPEVTCVVVDVSHEDPEVKFNWYVDGVEVHNAKTKPREEQYNSTYRVVSVLTVLHQDWLNGKEYKCKVSNKALGAPIEKTISKAKGQPREPQVCTLPPSRDELTKNQVSLSCAVKGFYPSDIAVEWESNGQPENNYKTTPPVLDSDGSFFLVSKLTVDKSRWQQGNVFSCSVMHEALHNHYTQKSLSLSP
light 1: DIQMTQSPSSLSASVGDRVTITCRASGNIYNYLAWYQQKPGKVPKLLIYDAKTLADGVPSRFSGSGSGTDFTLTISSLQPEDVATYYCQHFWSLPFTFGQGTKLEIKRTVAAPSVFIFPPSDRKLKSGTASVVCLLNNFYPREAKVQWKVDNALQSGNSQESVTEQDSKDSTYSLSSTLTLSKADYEKHKVYACEVTHQGLSSPVTKSFNRGEC
light 2: EVQLLESGGGLVQPGGSLRLSCAASGFTFSTYAMNWVRQAPGKGLEWVSRIRSKYNNYATYYADSVKGRFTISRDDSKNTLYLQMNSLRAEDTAVYYCVRHGNFGNSYVSWFAYWGQGTLVTVSSASVAAPSVFIFPPSDEQLKSGTASVVCLLNNFYPREAKVQWKVDNALQSGNSQESVTEQDSKDSTYSLSSTLTLSKADYEKHKVYACEVTHQGLSSPVTKSFNRGEC
notes: Same 2+1 format as m1; also called CD3orig in TCB format
B1: in assay [1], the Kd was determined as 6.54 nM, the koff stood at 0.00338 s⁻¹, the kon worked out at 517000 M⁻¹ s⁻¹ and the t1/2 was 3.42 min. In addition, in assay [2], the “binding activity [%] after 2 weeks at pH 6.0/40°C” value worked out at 95% and the “binding activity [%] after 2 weeks at pH 7.4/37°C” value was 65%.

B2: TYRP1-TCB with anti-CD3 antibody clone P021.045 (bispecific antibody, human IgG1, kappa, L234A L235A)
heavy 1: not shown
heavy 2: QVQLVQSGAEVKKPGASVKVSCKASGFNIKDYFLHWVRQAPGQGLEWMGWINPDNGNTVYAQKFQGRVTMTADTSTSTVYMELSSLRSEDTAVYYCTRRDYTYEKAALDYWGQGTLVTVSSASTKGPSVFPLAPSSKSTSGGTAALGCLVEDYFPEPVTVSWNSGALTSGVHTFPAVLQSSGLYSLSSVVTVPSSSLGTQTYICNVNHKPSNTKVDEKVEPKSCDKTHTCPPCPAPEAAGGPSVFLFPPKPKDTLMISRTPEVTCVVVDVSHEDPEVKFNWYVDGVEVHNAKTKPREEQYNSTYRVVSVLTVLHQDWLNGKEYKCKVSNKALGAPIEKTISKAKGQPREPQVCTLPPSRDELTKNQVSLSCAVKGFYPSDIAVEWESNGQPENNYKTTPPVLDSDGSFFLVSKLTVDKSRWQQGNVFSCSVMHEALHNHYTQKSLSLSP
light 1: DIQMTQSPSSLSASVGDRVTITCRASGNIYNYLAWYQQKPGKVPKLLIYDAKTLADGVPSRFSGSGSGTDFTLTISSLQPEDVATYYCQHFWSLPFTFGQGTKLEIKRTVAAPSVFIFPPSDRKLKSGTASVVCLLNNFYPREAKVQWKVDNALQSGNSQESVTEQDSKDSTYSLSSTLTLSKADYEKHKVYACEVTHQGLSSPVTKSFNRGEC
light 2: EVQLLESGGGLVQPGGSLRLSCAASGFTFSSYAMNWVRQAPGKGLEWVSRIRSKYNNYATYYADSVKGRFTISRDDSKNTLYLQMNSLRAEDTAVYYCVRASNFPSSYVSYFAYWGQGTLVTVSSASVAAPSVFIFPPSDEQLKSGTASVVCLLNNFYPREAKVQWKVDNALQSGNSQESVTEQDSKDSTYSLSSTLTLSKADYEKHKVYACEVTHQGLSSPVTKSFNRGEC
notes: human IgG1 Fc, knob-into-hole, P329G L234A L235A; also called P021.045 in TCB format
In assay [3], B2 showed a Kd of 0.2 nM, a koff of 0.000967 s⁻¹, a kon of 4.88e+06 M⁻¹ s⁻¹ and a t1/2 of 11.9 min. In assay [1], this molecule returned a Kd of 0.43 nM, a koff of 0.00133 s⁻¹, an on-rate constant (kon) of 3.1e+06 M⁻¹ s⁻¹ and a t1/2 of 8.69 min. In addition, in assay [2], the “binding activity [%] after 2 weeks at pH 6.0/40°C” value was 99% and the “binding activity [%] after 2 weeks at pH 7.4/37°C” value stood at 95%.

B3: TYRP1-TCB with anti-CD3 antibody clone P035.064 (bispecific antibody, human IgG1, kappa, L234A L235A)
heavy 1: not shown
heavy 2: QVQLVQSGAEVKKPGASVKVSCKASGFNIKDYFLHWVRQAPGQGLEWMGWINPDNGNTVYAQKFQGRVTMTADTSTSTVYMELSSLRSEDTAVYYCTRRDYTYEKAALDYWGQGTLVTVSSASTKGPSVFPLAPSSKSTSGGTAALGCLVEDYFPEPVTVSWNSGALTSGVHTFPAVLQSSGLYSLSSVVTVPSSSLGTQTYICNVNHKPSNTKVDEKVEPKSCDKTHTCPPCPAPEAAGGPSVFLFPPKPKDTLMISRTPEVTCVVVDVSHEDPEVKFNWYVDGVEVHNAKTKPREEQYNSTYRVVSVLTVLHQDWLNGKEYKCKVSNKALGAPIEKTISKAKGQPREPQVCTLPPSRDELTKNQVSLSCAVKGFYPSDIAVEWESNGQPENNYKTTPPVLDSDGSFFLVSKLTVDKSRWQQGNVFSCSVMHEALHNHYTQKSLSLSP
light 1: DIQMTQSPSSLSASVGDRVTITCRASGNIYNYLAWYQQKPGKVPKLLIYDAKTLADGVPSRFSGSGSGTDFTLTISSLQPEDVATYYCQHFWSLPFTFGQGTKLEIKRTVAAPSVFIFPPSDRKLKSGTASVVCLLNNFYPREAKVQWKVDNALQSGNSQESVTEQDSKDSTYSLSSTLTLSKADYEKHKVYACEVTHQGLSSPVTKSFNRGEC
light 2: EVQLLESGGGLVQPGGSLRLSCAASGFDFDNYAMNWVRQAPGKGLEWVSRIRSKHNGYATYYADSVKGRFTISRDDSKNTLYLQMNSLRAEDTAVYYCVRASNFPSSYVSYFGYWGQGTLVTVSSASVAAPSVFIFPPSDEQLKSGTASVVCLLNNFYPREAKVQWKVDNALQSGNSQESVTEQDSKDSTYSLSSTLTLSKADYEKHKVYACEVTHQGLSSPVTKSFNRGEC
notes: human IgG1 Fc, knob-into-hole, P329G L234A L235A; also called P035.064 in TCB format
Consider B3, for which, in assay [3], the Kd worked out at 0.38 nM, the koff amounted to 0.000921 s⁻¹, the kon turned out to be 2.44e+06 M⁻¹ s⁻¹ and the t1/2 was found to be 12.5 min. For the same molecule, in assay [1], the Kd was 0.63 nM, the koff stood at 0.00115 s⁻¹, the kon was determined as 1.83e+06 M⁻¹ s⁻¹ and the t1/2 came out at 10 min. Besides, in assay [2], the “binding activity [%] after 2 weeks at pH 6.0/40°C” value is 97% and the “binding activity [%] after 2 weeks at pH 7.4/37°C” value amounted to 96%.

B4: TYRP1-TCB with anti-CD3 antibody clone P004.042 (bispecific antibody, human IgG1, kappa, L234A L235A)
heavy 1: not shown
heavy 2: QVQLVQSGAEVKKPGASVKVSCKASGFNIKDYFLHWVRQAPGQGLEWMGWINPDNGNTVYAQKFQGRVTMTADTSTSTVYMELSSLRSEDTAVYYCTRRDYTYEKAALDYWGQGTLVTVSSASTKGPSVFPLAPSSKSTSGGTAALGCLVEDYFPEPVTVSWNSGALTSGVHTFPAVLQSSGLYSLSSVVTVPSSSLGTQTYICNVNHKPSNTKVDEKVEPKSCDKTHTCPPCPAPEAAGGPSVFLFPPKPKDTLMISRTPEVTCVVVDVSHEDPEVKFNWYVDGVEVHNAKTKPREEQYNSTYRVVSVLTVLHQDWLNGKEYKCKVSNKALGAPIEKTISKAKGQPREPQVCTLPPSRDELTKNQVSLSCAVKGFYPSDIAVEWESNGQPENNYKTTPPVLDSDGSFFLVSKLTVDKSRWQQGNVFSCSVMHEALHNHYTQKSLSLSP
light 1: DIQMTQSPSSLSASVGDRVTITCRASGNIYNYLAWYQQKPGKVPKLLIYDAKTLADGVPSRFSGSGSGTDFTLTISSLQPEDVATYYCQHFWSLPFTFGQGTKLEIKRTVAAPSVFIFPPSDRKLKSGTASVVCLLNNFYPREAKVQWKVDNALQSGNSQESVTEQDSKDSTYSLSSTLTLSKADYEKHKVYACEVTHQGLSSPVTKSFNRGEC
light 2: EVQLLESGGGLVQPGGSLRLSCAASGFQFDNYAMNWVRQAPGKGLEWVSRIRTKYNEYATYYADSVKGRFTISRDDSKNTLYLQMNSLRAEDTAVYYCVRASNFPQSYVSYFGYWGQGTLVTVSSASVAAPSVFIFPPSDEQLKSGTASVVCLLNNFYPREAKVQWKVDNALQSGNSQESVTEQDSKDSTYSLSSTLTLSKADYEKHKVYACEVTHQGLSSPVTKSFNRGEC
notes: human IgG1 Fc, knob-into-hole, P329G L234A L235A; also called P004.042 in TCB format
Take B4: in assay [3], the affinity, expressed as Kd, was 0.71 nM; the koff worked out at 0.00272 s⁻¹; the kon turned out to be 3.85e+06 M⁻¹ s⁻¹; the t1/2 amounted to 4.25 min. In assay [1], the Kd worked out at 1.54 nM, the koff was 0.00295 s⁻¹, the kon was determined as 1.92e+06 M⁻¹ s⁻¹ and the t1/2 worked out at 3.92 min. Besides, in assay [2], the “binding activity [%] after 2 weeks at pH 6.0/40°C” value was determined as 98% and the “binding activity [%] after 2 weeks at pH 7.4/37°C” value stood at 98%.
